1 molecule from patent US20110129485A1 (UNIVERSITY OF QUEENSLAND, published 2011) can be followed below.

The target of this test is T1, bovine serum albumin (BSA) (bovine, UniProt P02769 25-607).
T1 construct: Control protein for non-specific adsorption to the ASF-SPR chip
Kind of test: SPR, ASF-immobilised chip, BSA in solution. As for the experimental part:
The ASF-SPR chip was prepared starting with a 50 nm gold-coated SF10 glass substrate. The first SAM layer was self-assembled using a mixed ethanolic solution of 5×10⁻⁵ M cysteamine (NH₂ terminated thiol) (Sigma-Aldrich, Sydney, Australia) and 4.5×10⁻⁴ M mercaptoethanol (OH terminated thiol, as spacers) (Sigma-Aldrich, Sydney, Australia) for 15 h at room temperature. The second layer of biotin was introduced by coupling biotin-hexanoic acid (Sigma-Aldrich, Sydney, Australia) with cysteamine by activating 1 mg/ml biotin-hexanoic acid in PBS (prepared from a 6 mg/mL stock in dimethylformamide (DMF, Sigma-Aldrich, Sydney, Australia) with 4 mg/mL of 1-(3-dimethylaminopropy)-3-ethylcarbodiimide hydrochloride (EDC, Sigma-Aldrich, Sydney, Australia) and 0.7 mg/mL of N-hydroxysuccinimide (NHS, Sigma-Aldrich, Sydney, Australia). The third layer (of SA) was constructed by loading 45 μg/mL of SA (Invitrogen, Mount Waverley, Australia) into the flow cell, which specifically binds to biotin. This step took about 10 min to reach equilibrium. The SA layer was then activated by 4 mg/mL EDC and 0.7 mg/mL NHS for 5 min, enabling its carboxylic acid residue to react with the primary amino group of ASF (Sigma-Aldrich, Sydney, Australia). 1.0 mg/mL ASF was used in this step to prepare the fourth layer. […]
On the technique in general: In SPR one partner is held on a chip, and binding of the other changes the refractive index at the surface.

T1 sequence (P02769 25-607 limits assumed): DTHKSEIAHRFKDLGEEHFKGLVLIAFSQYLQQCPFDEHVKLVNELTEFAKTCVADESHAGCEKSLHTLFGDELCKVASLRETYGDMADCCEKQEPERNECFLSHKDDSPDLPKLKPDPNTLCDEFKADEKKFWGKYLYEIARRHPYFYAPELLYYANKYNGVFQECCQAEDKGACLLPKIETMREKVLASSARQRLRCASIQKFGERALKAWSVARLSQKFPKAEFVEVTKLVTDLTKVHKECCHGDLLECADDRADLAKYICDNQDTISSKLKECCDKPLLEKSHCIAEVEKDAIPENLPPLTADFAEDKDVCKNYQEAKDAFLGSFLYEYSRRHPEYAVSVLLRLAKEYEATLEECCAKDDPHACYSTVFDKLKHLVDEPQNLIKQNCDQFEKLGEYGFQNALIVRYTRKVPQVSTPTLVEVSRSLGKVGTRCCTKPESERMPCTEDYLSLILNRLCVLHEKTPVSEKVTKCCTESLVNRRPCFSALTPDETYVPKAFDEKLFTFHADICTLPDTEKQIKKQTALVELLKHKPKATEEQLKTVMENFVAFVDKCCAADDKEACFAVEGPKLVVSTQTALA

B1: asialofetuin (ASF) (other, UniProt P12763 19-359, looked up)
chain: IPLDPVAGYKEPACDDPDTEQAALAAVDYINKHLPRGYKHTLNQIDSVKVWPRRPTGEVYDIEIDTLETTCHVLDPTPLANCSVRQQTQHAVEGDCDIHVLKQDGQFSVLFTKCDSSPDSAEDVRKLCPDCPLLAPLNDSRVVHAVEVALATFNAESNGSYLQLVEISRAQFVPLPVSVSVEFAVAATDCIAKEVVDPTKCNLLAEKQYGFCKGSVIQKALGGEDVRVTCTLFQTQPVIPQPQPDGAEAEAPSAVPDAAGPTPSAAGPPVASVVVGPSVVAVPLPLHRAHYDLRHTFSGVASVESSSGEAFHVGKTPIVGQPSIPGGPVRLCPGRIRYFKI
modifications: three triantennary N-link oligosaccharide chains with terminal N-acetyllactosamine (LacNAC) residues and three O-linked disaccharide chains (desialylated)
notes: Immobilised on a home-made SPR chip (thiol-SAM/biotin/streptavidin/ASF) by EDC/NHS coupling to streptavidin; also called asiolofetuin
With B1, the binding result is “no binding (tested: 4.4 mg/mL)”.
